According to US20240252614A1:

Tests used:
Conditions in all cases: remark: other sources report otherwise
[1] = target: hMPV A F WT Control (hMPV A), Q6WB98; experiment: BLI, no stress
hMPV043 (hMPV A), Q6WB98 = experiment: BLI, no stress
hMPV044 (hMPV A), Q6WB98 = experiment: BLI, no stress
hMPV045 (hMPV A), Q6WB98 [2] = experiment: BLI, no stress
hMPV046 (hMPV A), Q6WB98 = experiment: BLI, no stress
hMPV047 (hMPV A), Q6WB98 = experiment: BLI, no stress
hMPV048 (hMPV A), Q6WB98 = experiment: BLI, no stress
hMPV049 (hMPV A), Q6WB98 = experiment: BLI, no stress
hMPV050 (hMPV A), Q6WB98 = experiment: BLI, no stress
hMPV052 (hMPV A), Q6WB98 = experiment: BLI, no stress
hMPV053 (hMPV A), Q6WB98 = experiment: BLI, no stress
hMPV054 (hMPV A), Q6WB98 = experiment: BLI, no stress
hMPV055 (hMPV A), Q6WB98 = experiment: BLI, no stress
hMPV058 (hMPV A), Q6WB98 = experiment: BLI, no stress
hMPV059 (hMPV A), Q6WB98 = experiment: BLI, no stress
hMPV060 (hMPV A), Q6WB98 = experiment: BLI, no stress
hMPV061 (hMPV A), Q6WB98 = experiment: BLI, no stress
hMPV062 (hMPV A), Q6WB98 = experiment: BLI, no stress
hMPV063 (hMPV A), Q6WB98 = experiment: BLI, no stress
hMPV066 (hMPV A), Q6WB98 = experiment: BLI, no stress
hMPV067 (hMPV A), Q6WB98 = experiment: BLI, no stress
hMPV068 (hMPV A), Q6WB98 = experiment: BLI, no stress
hMPV069 (hMPV A), Q6WB98 = experiment: BLI, no stress
hMPV071 (hMPV A), Q6WB98 = experiment: BLI, no stress
hMPV075 (hMPV A), Q6WB98 = experiment: BLI, no stress
hMPV077 (hMPV A), Q6WB98 = experiment: BLI, no stress
[3] = target: hMPV A F WT Control (hMPV A), Q6WB98; experiment: BLI, no stress; remark: listed apart in the source
hMPV080 (hMPV A), Q6WB98 = experiment: BLI, no stress
[4] = target: hMPV A F WT Control (hMPV A), Q6WB98; experiment: BLI, no stress; remark: listed apart in the source
hMPV078 (hMPV A), Q6WB98 = experiment: BLI, no stress
hMPV079 (hMPV A), Q6WB98 = experiment: BLI, no stress
hMPV081 (hMPV A), Q6WB98 = experiment: BLI, no stress
hMPV082 (hMPV A), Q6WB98 = experiment: BLI, no stress
hMPV083 (hMPV A), Q6WB98 = experiment: BLI, no stress
hMPV084 (hMPV A), Q6WB98 = experiment: BLI, no stress
hMPV085 (hMPV A), Q6WB98 = experiment: BLI, no stress
hMPV086 (hMPV A), Q6WB98 = experiment: BLI, no stress
hMPV087 (hMPV A), Q6WB98 = experiment: BLI, no stress
hMPV088 (hMPV A), Q6WB98 = experiment: BLI, no stress
hMPV089 (hMPV A), Q6WB98 = experiment: BLI, no stress
hMPV090 (hMPV A), Q6WB98 = experiment: BLI, no stress
hMPV097 (hMPV A), Q6WB98 = experiment: BLI, no stress
hMPV045 (hMPV A), Q6WB98 [5] = experiment: BLI, 50C stress
[6] = target: hMPV A F WT Control (hMPV A), Q6WB98; experiment: BLI, 53C stress

B1: MPE8 mAb (antibody, V domains shown)
VH: EVQLVESGGGLVKPGGSLRLSCAASGFTFSSYSMNWVRQAPGKGLEWVSSISASSSYSDYADSAKGRFTISRDNAKTSLFLQMNSLRAEDTAIYFCARARATGYSSITPYFDIWGQGTLVTVSS
VL: QSVVTQTPSVSGAPGQRVTISCTGSSSNIGAGYDVHWYQQLPGTAPKLLIYDNNNRPSGVPDRFSASKSGTSASLAITGLQAEDEADYYCQSYDRNLSGVFGTGTKVTVL
Response Shift [1]: 0.69 nm | Response Shift (hMPV043 (hMPV A), Q6WB98): 0.558 nm | Response Shift (hMPV044 (hMPV A), Q6WB98): 0.72 nm | Response Shift (hMPV045 (hMPV A), Q6WB98 [2]): 0.603 nm | Response Shift (hMPV046 (hMPV A), Q6WB98): 0.603 nm | Response Shift (hMPV047 (hMPV A), Q6WB98): 0.259 nm | Response Shift (hMPV048 (hMPV A), Q6WB98): 0.596 nm | Response Shift (hMPV049 (hMPV A), Q6WB98): 0.672 nm | Response Shift (hMPV050 (hMPV A), Q6WB98): 0.641 nm | Response Shift (hMPV052 (hMPV A), Q6WB98): 0.716 nm | Response Shift (hMPV053 (hMPV A), Q6WB98): 0.624 nm | Response Shift (hMPV054 (hMPV A), Q6WB98): 0.73 nm | Response Shift (hMPV055 (hMPV A), Q6WB98): 0.581 nm | Response Shift (hMPV058 (hMPV A), Q6WB98): 0.684 nm | Response Shift (hMPV059 (hMPV A), Q6WB98): 0.666 nm | Response Shift (hMPV060 (hMPV A), Q6WB98): 0.84 nm | Response Shift (hMPV061 (hMPV A), Q6WB98): 0.813 nm | Response Shift (hMPV062 (hMPV A), Q6WB98): 0.713 nm | Response Shift (hMPV063 (hMPV A), Q6WB98): 0.849 nm | Response Shift (hMPV066 (hMPV A), Q6WB98): 0.779 nm | Response Shift (hMPV067 (hMPV A), Q6WB98): 0.744 nm | Response Shift (hMPV068 (hMPV A), Q6WB98): 0.738 nm | Response Shift (hMPV069 (hMPV A), Q6WB98): 0.651 nm | Response Shift (hMPV071 (hMPV A), Q6WB98): 0.804 nm | Response Shift (hMPV075 (hMPV A), Q6WB98): 0.777 nm | Response Shift (hMPV077 (hMPV A), Q6WB98): 0.706 nm | Response Shift [3]: 0.102 nm | Response Shift (hMPV080 (hMPV A), Q6WB98): 0.787 nm | Response Shift [4]: 0.926 nm | Response Shift (hMPV078 (hMPV A), Q6WB98): 0.955 nm | Response Shift (hMPV079 (hMPV A), Q6WB98): 0.887 nm | Response Shift (hMPV081 (hMPV A), Q6WB98): 0.955 nm | Response Shift (hMPV082 (hMPV A), Q6WB98): 0.949 nm | Response Shift (hMPV083 (hMPV A), Q6WB98): 0.805 nm | Response Shift (hMPV084 (hMPV A), Q6WB98): 0.924 nm | Response Shift (hMPV085 (hMPV A), Q6WB98): 0.877 nm | Response Shift (hMPV086 (hMPV A), Q6WB98): 0.834 nm | Response Shift (hMPV087 (hMPV A), Q6WB98): 0.979 nm | Response Shift (hMPV088 (hMPV A), Q6WB98): 0.974 nm | Response Shift (hMPV089 (hMPV A), Q6WB98): 0.959 nm | Response Shift (hMPV090 (hMPV A), Q6WB98): 0.903 nm | Response Shift (hMPV097 (hMPV A), Q6WB98): 0.918 nm | Response Shift (hMPV045 (hMPV A), Q6WB98 [5]): 0.139 nm | Response Shift [6]: 0.037 nm
